Measurements reported in publication PMC6220335, “Molecular structure of promoter-bound yeast TFIID” (Nature Communications, 2018).

Experiments:
Experiment in all cases: cross-linking; 50 µg purified TFIID, 3 mM BS3, 2 h at 25 °C; trypsin, SCX fractionation, Orbitrap Fusion MS; pLink and Nexus, 5% FDR
Conditions in all cases: both partners purified
[1] = molecular target: T1, Taf11, subunit of Komagataella phaffii TFIID (Komagataella phaffii, UniProt F2QRB1 1-281)
T1 construct: Taf11, TFIID subunit of the yeast Komagataella phaffii (formerly Pichia pastoris); histone-fold domain modelled in the cryo-EM map; source: endogenous, K. phaffii nuclear extract; co-purified in TFIID by SBP-tagged Taf2 (streptavidin beads, sucrose gradient)
T1 sequence (looked up): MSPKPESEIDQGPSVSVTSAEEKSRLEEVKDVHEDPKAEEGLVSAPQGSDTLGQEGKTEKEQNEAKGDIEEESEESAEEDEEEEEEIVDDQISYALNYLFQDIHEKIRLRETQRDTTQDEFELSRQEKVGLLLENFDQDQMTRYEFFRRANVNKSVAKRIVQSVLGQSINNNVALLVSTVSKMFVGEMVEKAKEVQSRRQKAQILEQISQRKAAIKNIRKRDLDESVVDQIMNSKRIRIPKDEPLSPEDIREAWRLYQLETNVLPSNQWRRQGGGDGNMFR

[2] = molecular target: T2, Taf5, subunit of Komagataella phaffii TFIID (Komagataella phaffii, UniProt F2QWD3 1-722)
T2 construct: Taf5, TFIID subunit of the yeast Komagataella phaffii (formerly Pichia pastoris); WD40 repeat and NTD (residues 99–243) modelled in the cryo-EM map; two copies in holo-TFIID; source: endogenous, K. phaffii nuclear extract; co-purified in TFIID by SBP-tagged Taf2 (streptavidin beads, sucrose gradient)
T2 sequence (looked up): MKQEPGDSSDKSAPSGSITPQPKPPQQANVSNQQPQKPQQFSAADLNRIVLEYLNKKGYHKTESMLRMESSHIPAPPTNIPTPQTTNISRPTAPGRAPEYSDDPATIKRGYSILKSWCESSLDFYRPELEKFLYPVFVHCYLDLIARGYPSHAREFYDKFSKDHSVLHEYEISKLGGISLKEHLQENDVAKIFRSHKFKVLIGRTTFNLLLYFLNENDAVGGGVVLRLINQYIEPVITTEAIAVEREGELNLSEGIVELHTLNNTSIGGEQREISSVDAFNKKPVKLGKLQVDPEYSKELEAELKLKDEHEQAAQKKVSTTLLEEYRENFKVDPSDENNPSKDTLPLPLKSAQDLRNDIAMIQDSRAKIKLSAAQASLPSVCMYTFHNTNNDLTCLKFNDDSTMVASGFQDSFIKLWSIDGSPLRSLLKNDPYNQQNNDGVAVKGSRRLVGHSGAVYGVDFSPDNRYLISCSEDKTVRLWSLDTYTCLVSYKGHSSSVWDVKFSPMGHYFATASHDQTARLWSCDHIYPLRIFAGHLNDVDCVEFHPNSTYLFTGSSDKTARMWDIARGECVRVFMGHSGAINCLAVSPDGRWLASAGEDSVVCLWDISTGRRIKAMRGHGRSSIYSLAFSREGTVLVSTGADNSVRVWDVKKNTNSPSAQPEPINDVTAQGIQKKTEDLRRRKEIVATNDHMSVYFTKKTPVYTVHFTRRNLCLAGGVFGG

[3] = molecular target: T3, Taf1 (TBP-associated factor 1), subunit of Komagataella phaffii TFIID (Komagataella phaffii, UniProt F2QMX2 1-1010)
T3 construct: Taf1, TFIID subunit of the yeast Komagataella phaffii (formerly Pichia pastoris); native subunit of the purified complex; also called KpTaf1; source: endogenous, K. phaffii nuclear extract; co-purified in TFIID by SBP-tagged Taf2 (streptavidin beads, sucrose gradient)
T3 sequence (looked up): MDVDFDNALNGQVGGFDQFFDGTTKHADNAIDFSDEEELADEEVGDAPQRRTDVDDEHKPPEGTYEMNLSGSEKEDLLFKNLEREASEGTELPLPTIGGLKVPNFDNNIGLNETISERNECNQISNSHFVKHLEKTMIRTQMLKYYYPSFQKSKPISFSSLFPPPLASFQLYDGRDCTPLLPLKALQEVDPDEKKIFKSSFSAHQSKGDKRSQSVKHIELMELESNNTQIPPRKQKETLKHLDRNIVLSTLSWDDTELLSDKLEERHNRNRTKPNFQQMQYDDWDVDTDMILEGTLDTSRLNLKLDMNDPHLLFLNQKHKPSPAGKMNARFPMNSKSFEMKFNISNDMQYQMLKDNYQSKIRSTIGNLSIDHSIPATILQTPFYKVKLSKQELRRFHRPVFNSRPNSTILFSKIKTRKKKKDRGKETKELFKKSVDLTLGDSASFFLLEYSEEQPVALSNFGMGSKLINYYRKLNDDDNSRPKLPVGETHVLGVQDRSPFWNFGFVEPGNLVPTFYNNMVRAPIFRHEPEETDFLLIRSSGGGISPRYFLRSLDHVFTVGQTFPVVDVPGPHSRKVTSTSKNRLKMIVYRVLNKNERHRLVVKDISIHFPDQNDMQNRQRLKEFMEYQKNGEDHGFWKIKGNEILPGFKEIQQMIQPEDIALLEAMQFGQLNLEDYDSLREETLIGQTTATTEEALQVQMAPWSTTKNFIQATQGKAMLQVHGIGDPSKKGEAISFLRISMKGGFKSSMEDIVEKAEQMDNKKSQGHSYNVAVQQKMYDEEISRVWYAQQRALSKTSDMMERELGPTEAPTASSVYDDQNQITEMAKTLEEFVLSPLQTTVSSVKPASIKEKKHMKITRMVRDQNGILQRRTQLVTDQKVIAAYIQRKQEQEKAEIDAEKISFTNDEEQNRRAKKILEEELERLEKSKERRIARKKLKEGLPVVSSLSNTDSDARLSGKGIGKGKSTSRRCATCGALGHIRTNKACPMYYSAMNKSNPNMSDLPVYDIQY

[4] = molecular target: T4, Taf2 with C-terminal streptavidin-binding peptide tag, subunit of Komagataella phaffii TFIID (Komagataella phaffii, UniProt F2QRH9 1-1571)
T4 construct: Taf2, TFIID subunit of the yeast Komagataella phaffii (formerly Pichia pastoris); residues 36 to 1194 modelled in the cryo-EM map; bait of the purification; also called SBP-tagged Taf2; source: K. phaffii strain with SBP-tagged Taf2, nuclear extract; purified (streptavidin beads, biotin elution, sucrose gradient)

[5] = molecular target: T5, Taf8, subunit of Komagataella phaffii TFIID (Komagataella phaffii, UniProt F2QT15 1-517)
T5 construct: Taf8, TFIID subunit of the yeast Komagataella phaffii (formerly Pichia pastoris); putative helices placed in the cryo-EM map; also called KpTaf8; source: endogenous, K. phaffii nuclear extract; co-purified in TFIID by SBP-tagged Taf2 (streptavidin beads, sucrose gradient)
T5 sequence (looked up): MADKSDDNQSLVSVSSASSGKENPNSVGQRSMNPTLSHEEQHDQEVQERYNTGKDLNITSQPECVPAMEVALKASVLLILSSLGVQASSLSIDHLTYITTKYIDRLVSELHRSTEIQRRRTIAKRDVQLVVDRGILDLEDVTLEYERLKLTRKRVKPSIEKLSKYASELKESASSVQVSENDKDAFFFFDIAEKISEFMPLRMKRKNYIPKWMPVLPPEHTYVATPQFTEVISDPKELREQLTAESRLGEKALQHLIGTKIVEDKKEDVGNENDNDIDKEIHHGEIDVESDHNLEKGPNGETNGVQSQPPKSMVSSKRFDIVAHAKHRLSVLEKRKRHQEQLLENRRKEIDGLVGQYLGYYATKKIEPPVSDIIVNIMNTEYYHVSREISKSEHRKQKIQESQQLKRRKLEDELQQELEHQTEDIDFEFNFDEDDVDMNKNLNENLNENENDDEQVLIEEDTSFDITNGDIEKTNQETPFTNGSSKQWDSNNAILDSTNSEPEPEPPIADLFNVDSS

B1: Taf9, subunit of Komagataella phaffii TFIID (natural protein, UniProt F2QTW3 1-153, looked up)
chain: MTNEQAAIPRDVRLLHLIFATQNIYSYQDHVPLQLMDFAYRYTTGTLQDATIYSDHAHASGSHISNAGNAGTNAQLTTEDIRLAIAARTNYQFKPVPPKELLLELAAERNKKPLPAVIPTWGIRLPPEKYCLTGKDWVLEDEEEAVSYKKRKT
notes: Taf9, TFIID subunit of the yeast Komagataella phaffii (formerly Pichia pastoris); histone-fold domain modelled in the cryo-EM map; source: endogenous, K. phaffii nuclear extract; co-purified in TFIID by SBP-tagged Taf2 (streptavidin beads, sucrose gradient)
[1]
  binding result: binds
[2]
  binding result: binds

B2: Taf7, subunit of Komagataella phaffii TFIID (natural protein, UniProt F2QXR8 1-460, looked up)
chain: MIKLKLHTDKKQNTVERRPKIKVKPPINKPESTVIPRIRVKPTRIAGDGYDSEDPDREDDPTTEEAIVMRIVPNDYSLEYVKKCVEQGDFSEISLQWKDKRRAVLRLKDRLYGAKLVDLPTMVEIHKTIDRKNIFKTMDVSQILLVIKELKYESEYLDIQLTASETFDDGLTPPLRGVKKRFDKRMTSKVFQIIEEQVDELFRLDEEAEASKYELVDTEAGTIPSFDADASTPNTKEFTVRGHLDVEDNEDLELELEQAFQQQSDTPLNPQQRSKGGRKTNDSDAHVRFYEQEEEDDEDEETFELKRVCSAEAKVEEGEEEAEEETEETEDDEDDDDEEVVGGKEIISGQRAGIDERLTHTQIIKEEIEELQATIGLKQSDFNKASNPIMKNRISDVIGRLKAELETKLRQVEMEQKEQQNNSNVTSHNIYQQRELDEDEDEDDDEDGDEDDDDDMEDLF
notes: Taf7, TFIID subunit of the yeast Komagataella phaffii (formerly Pichia pastoris); source: endogenous, K. phaffii nuclear extract; co-purified in TFIID by SBP-tagged Taf2 (streptavidin beads, sucrose gradient)
[3]
  binding result: binds
[4]
  binding result: binds

B3: Taf10, subunit of Komagataella phaffii TFIID (natural protein, UniProt F2QLJ9 1-217, looked up)
chain: MSTEKLFEDLDEDSLMQDVEGGVEGSMTIEEEPEPNDEKEAPHISMPSLPEYTRKDKTLEEILEMMEDEEFTPIIPDAVTDYYLAKNGFETSDIKIKRILALATQKFISDIAQDAYEYSRIRSSSSVYTSANPQARARQLVAGQQQQQQQQPQQQQQQQPQTGASQPAPTVGGSGGGGGGGGGTSTGTNNKVVLTMDDLRSALGEYGINVKRPNFYR
notes: Taf10, TFIID subunit of the yeast Komagataella phaffii (formerly Pichia pastoris); source: endogenous, K. phaffii nuclear extract; co-purified in TFIID by SBP-tagged Taf2 (streptavidin beads, sucrose gradient)
[5]
  binding result: binds
